Test results reported in patent US20220259295A1 (INSERM INSTITUT NATIONAL DE LA SANT ET DE LA RECHERCHE M …, published 2022).
Where two headings read alike, the source gives them in different places.

Tests used:
[1] = molecular target: T1, human plasminogen activator inhibitor-1 (human, UniProt P05121 24-402); assay: non-adsorbed phage ELISA, phage on coated hPAI-1, anti-M13 detection
T1 construct: also called hPAI-1; human PAI-1

[2] = molecular target: T2, murine plasminogen activator inhibitor-1 (murine, UniProt P22777 23-402); assay: ELISA, PAI-1 captured on anti-PAI-1 mAb, anti-6xHis detection
T2 construct: also called mPAI-1; murine PAI-1
T2 sequence (looked up): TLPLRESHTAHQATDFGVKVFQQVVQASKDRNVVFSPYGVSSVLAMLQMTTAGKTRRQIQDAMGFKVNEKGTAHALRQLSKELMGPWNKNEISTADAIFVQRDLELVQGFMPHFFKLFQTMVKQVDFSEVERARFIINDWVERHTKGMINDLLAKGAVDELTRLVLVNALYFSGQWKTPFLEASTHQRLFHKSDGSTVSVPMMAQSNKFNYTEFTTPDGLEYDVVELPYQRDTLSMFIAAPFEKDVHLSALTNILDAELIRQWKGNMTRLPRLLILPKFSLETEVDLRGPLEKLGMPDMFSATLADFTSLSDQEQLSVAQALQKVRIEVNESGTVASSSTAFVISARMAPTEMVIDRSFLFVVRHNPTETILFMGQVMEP

human protease nexin-1 [3] = molecular target: T3, human protease nexin-1 (human, UniProt P07093 20-398); assay: inhibition of PN-1 activity (residual thrombin activity, chromogenic substrate)
T3 chain: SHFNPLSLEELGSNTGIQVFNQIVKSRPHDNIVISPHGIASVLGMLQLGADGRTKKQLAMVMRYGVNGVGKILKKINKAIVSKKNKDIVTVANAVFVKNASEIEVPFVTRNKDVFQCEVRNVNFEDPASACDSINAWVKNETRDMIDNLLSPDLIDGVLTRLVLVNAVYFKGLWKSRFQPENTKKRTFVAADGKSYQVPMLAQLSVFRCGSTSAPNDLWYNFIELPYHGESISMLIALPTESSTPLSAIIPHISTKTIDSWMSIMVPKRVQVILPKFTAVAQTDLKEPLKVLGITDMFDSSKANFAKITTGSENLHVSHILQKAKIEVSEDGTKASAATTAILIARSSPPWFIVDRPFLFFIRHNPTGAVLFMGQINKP

murine protease nexin-1 [4] = molecular target: T4, murine protease nexin-1 (murine, UniProt Q07235 20-397); assay: as above
T4 chain: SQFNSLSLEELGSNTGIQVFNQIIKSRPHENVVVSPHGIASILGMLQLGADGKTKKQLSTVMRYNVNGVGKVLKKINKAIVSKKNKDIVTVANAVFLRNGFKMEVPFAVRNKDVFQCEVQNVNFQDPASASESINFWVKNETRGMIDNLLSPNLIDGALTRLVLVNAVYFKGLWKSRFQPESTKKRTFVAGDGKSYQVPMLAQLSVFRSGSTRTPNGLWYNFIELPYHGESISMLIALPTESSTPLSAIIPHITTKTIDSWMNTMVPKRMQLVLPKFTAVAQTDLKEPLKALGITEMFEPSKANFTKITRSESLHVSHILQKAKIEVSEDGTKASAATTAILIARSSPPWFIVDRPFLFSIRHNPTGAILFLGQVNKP

human protease nexin-1 [5] = molecular target: T5, human protease nexin-1 (human, UniProt P07093 20-398); assay: cell-based or functional assay
T5 sequence (looked up): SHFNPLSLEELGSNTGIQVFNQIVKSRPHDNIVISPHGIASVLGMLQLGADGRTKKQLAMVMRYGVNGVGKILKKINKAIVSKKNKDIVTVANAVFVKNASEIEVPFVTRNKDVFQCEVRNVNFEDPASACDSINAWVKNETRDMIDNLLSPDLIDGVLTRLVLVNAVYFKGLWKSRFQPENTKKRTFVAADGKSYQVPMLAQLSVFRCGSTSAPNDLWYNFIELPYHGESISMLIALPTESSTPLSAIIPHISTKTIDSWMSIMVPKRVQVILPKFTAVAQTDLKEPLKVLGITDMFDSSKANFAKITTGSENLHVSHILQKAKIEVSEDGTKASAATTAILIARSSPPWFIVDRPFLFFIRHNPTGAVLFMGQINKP

murine protease nexin-1 [6] = molecular target: T6, murine protease nexin-1 (murine, UniProt Q07235 20-397); assay: cell-based or functional assay
T6 sequence (looked up): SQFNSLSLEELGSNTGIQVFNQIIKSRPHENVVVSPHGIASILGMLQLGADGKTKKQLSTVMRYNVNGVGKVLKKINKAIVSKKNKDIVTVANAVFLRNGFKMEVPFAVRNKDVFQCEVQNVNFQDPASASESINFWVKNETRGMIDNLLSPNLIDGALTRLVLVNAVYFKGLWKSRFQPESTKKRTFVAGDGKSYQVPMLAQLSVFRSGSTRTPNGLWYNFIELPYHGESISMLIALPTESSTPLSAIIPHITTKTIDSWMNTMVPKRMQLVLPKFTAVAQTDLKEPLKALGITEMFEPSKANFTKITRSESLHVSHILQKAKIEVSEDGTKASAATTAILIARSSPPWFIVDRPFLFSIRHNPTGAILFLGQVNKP

[7] = molecular target: T1, human plasminogen activator inhibitor-1; assay: specificity test of Example 1 (refers to FIG. 2E-G)
human protease nexin-1 [8] = molecular target: T3, human protease nexin-1; assay: inhibition of PN-1 activity (residual thrombin activity, chromogenic substrate)
murine protease nexin-1 [9] = molecular target: T4, murine protease nexin-1; assay: as above
[10] = molecular target: T7, PN-1 released from TRAP-activated platelets (Homo sapiens (Human), UniProt P07093 20-398); assay: cell-based or functional assay
T7 sequence: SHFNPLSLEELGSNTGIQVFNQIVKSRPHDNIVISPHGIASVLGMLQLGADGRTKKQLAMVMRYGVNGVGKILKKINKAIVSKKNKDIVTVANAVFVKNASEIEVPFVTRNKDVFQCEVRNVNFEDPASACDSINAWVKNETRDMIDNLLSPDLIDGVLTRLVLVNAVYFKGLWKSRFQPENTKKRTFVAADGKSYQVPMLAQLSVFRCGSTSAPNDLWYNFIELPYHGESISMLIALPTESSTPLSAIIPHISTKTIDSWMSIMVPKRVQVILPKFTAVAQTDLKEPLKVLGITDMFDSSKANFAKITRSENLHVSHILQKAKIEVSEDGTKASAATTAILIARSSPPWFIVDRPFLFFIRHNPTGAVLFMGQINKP

[11] = molecular target: T1, human plasminogen activator inhibitor-1; assay: ELISA, PAI-1 captured on anti-PAI-1 mAb, anti-6xHis detection

T1 sequence (P05121 24-402 limits assumed): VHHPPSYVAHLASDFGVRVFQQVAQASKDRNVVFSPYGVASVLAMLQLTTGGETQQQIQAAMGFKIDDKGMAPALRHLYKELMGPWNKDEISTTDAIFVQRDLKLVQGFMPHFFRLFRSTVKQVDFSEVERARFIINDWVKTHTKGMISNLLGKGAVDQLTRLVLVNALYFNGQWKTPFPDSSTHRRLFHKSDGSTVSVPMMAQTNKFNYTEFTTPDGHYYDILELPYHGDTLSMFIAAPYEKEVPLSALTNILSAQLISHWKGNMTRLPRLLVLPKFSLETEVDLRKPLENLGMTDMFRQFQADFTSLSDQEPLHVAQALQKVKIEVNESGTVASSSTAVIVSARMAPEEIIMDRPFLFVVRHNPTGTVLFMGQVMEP

Binder	binding result [1]	binding result [2]	IC50 (human protease nexin-1 [3]) [µM]	IC50 (murine protease nexin-1 [4]) [µM]	IC50 (thrombin activity assay, 10 nM PN-1, 1 nM thrombin) (human protease nexin-1 [5]) [µM]	recovery of thrombin activity (percentage of thrombin alone; 1 nM thrombin, 10 nM PN-1, 10 µM VHH) (human protease nexin-1 [5]) [%]	IC50 (thrombin activity assay, 10 nM PN-1, 1 nM thrombin) (murine protease nexin-1 [6]) [µM]	recovery of thrombin activity (percentage of thrombin alone; 1 nM thrombin, 10 nM PN-1, 10 µM VHH) (murine protease nexin-1 [6]) [%]	binding result [7]	IC50 (human protease nexin-1 [8]) [µM]	IC50 (murine protease nexin-1 [9]) [µM]	thrombin activity restored (supernatant of TRAP-activated platelets, 0.1 nM thrombin, 1 µM bivalent VHH) [10] [%]	modified prothrombin time (PT), murine plasma with 62.5 nM mPN-1 and 288 nM bivalent VHH (murine protease nexin-1 [6]) [s]	binding result [11]
A08 (VHH, Monovalent VHH from the synthetic hs2dAb library; His-tagged, detected by anti-cMyc or anti-6xHis; also called VHH A08; single domain antibody A08; not shown: cMyc tag and 6xHis tag (pHEN2 vector)) VHH: EVQLQASGGGFVQPGGSLRLSCAASGYYSYSSTMGWFRQAPGKEREFVSAISFYSDMAHYYADSVKGRFTISRDNSKNTVYLQMNSLRAEDTATYYCAAFSKLGKIKYWGQGTQVTVSS	no binding	no binding (tested: 10 µg/mL)	1.17	3.54	0.96	100	2.88	94	–	–	–	–	–	–
B11 (VHH, Monovalent VHH from the synthetic hs2dAb library, made in E. coli WK6, purified by its His tag, detected by anti-cMyc or anti-6xHis; also called VHH B11; BI 1; not shown: cMyc tag and 6xHis tag (pHEN2 vector)) VHH: EVQLQASGGGFVQPGGSLRLSCAASGSTWFREIMGWFRQAPGKEREFVSAISSDPTWHAYYADSVKGRFTISRDNSKNTVYLQMNSLRAEDTATYYCAPLAGTESIHWWDPWHESSYWGQGTQVTVSS	–	no binding (tested: 10 µg/mL)	0.06	1.27	0.05	100	1.58	92	no binding	–	–	–	–	–
B11-A08 (VHH, Bivalent (biparatopic) tandem B11-linker-A08; also called bivalent hybribody B11-A08; bivalent VHH B11A08) EVQLQASGGGFVQPGGSLRLSCAASGSTWFREIMGWFRQAPGKEREFVSAISSDPTWHAYYADSVKGRFTISRDNSKNTVYLQMNSLRAEDTATYYCAPLAGTESIHWWDPWHESSYWGQGTQVTVSSGGGSGGGSGGGSGGGSEVQLQASGGGFVQPGGSLRLSCAASGYYSYSSTMGWFRQAPGKEREFVSAISFYSDMAHYYADSVKGRFTISRDNSKNTVYLQMNSLRAEDTATYYCAAFSKLGKIKYWGQGTQVTVSSHHHHHH	–	–	–	–	0.142	–	0.524	–	no binding	0.139	0.395	100	93.2	–
F06 (VHH, Monovalent VHH from the synthetic hs2dAb library; His-tagged, detected by anti-cMyc or anti-6xHis; also called VHH F06; single domain antibody F06; not shown: cMyc tag and 6xHis tag (pHEN2 vector)) VHH: EVQLQASGGGFVQPGGSLRLSCAASGDTWSLEIMGWFRQAPGKEREFVSAISSEDGWHAYYADSVKGRFTISRDNSKNTVYLQMNSLRAEDTATYYCAKIENWIQAVEGEMSDYWGQGTQVTVSS	–	no binding (tested: 10 µg/mL)	0.23	0.67	0.29	100	0.56	96	–	–	–	–	–	no binding (tested: 10 µg/mL)
B11-F06 (VHH, Bivalent (biparatopic) tandem B11-linker-F06; also called bivalent hybribody B11-F06; bivalent VHH B11F06) EVQLQASGGGFVQPGGSLRLSCAASGSTWFREIMGWFRQAPGKEREFVSAISSDPTWHAYYADSVKGRFTISRDNSKNTVYLQMNSLRAEDTATYYCAPLAGTESIHWWDPWHESSYWGQGTQVTVSSGGGSGGGSGGGSGGGSEVQLQASGGGFVQPGGSLRLSCAASGDTWSLEIMGWFRQAPGKEREFVSAISSEDGWHAYYADSVKGRFTISRDNSKNTVYLQMNSLRAEDTATYYCAKIENWIQAVEGEMSDYWGQGTQVTVSSHHHHHH	–	–	–	–	0.062	–	0.414	–	no binding	0.068	0.254	88	83.3	–
B11-Bv (VHH, Bivalent (monoparatopic) tandem of two B11 VHHs; also called bivalent hybribody B11-Bv; bivalent VHH B11bv) EVQLQASGGGFVQPGGSLRLSCAASGSTWFREIMGWFRQAPGKEREFVSAISSDPTWHAYYADSVKGRFTISRDNSKNTVYLQMNSLRAEDTATYYCAPLAGTESIHWWDPWHESSYWGQGTQVTVSSAAAEVQLQASGGGFVQPGGSLRLSCAASGSTWFREIMGWFRQAPGKEREFVSAISSDPTWHAYYADSVKGRFTISRDNSKNTVYLQMNSLRAEDTATYYCAPLAGTESIHWWDPWHESSYWGQGTQVTVSSHHHHHH	–	–	–	–	0.041	–	0.825	–	no binding	0.04	0.509	97	83.5	–
